According to the nanobody polyreactivity screen of Harvey et al. (2022):

Assay: yeast display, Sf9 membrane polyspecificity reagent, FACS + sequencing; frameworks hold sequencing errors
Method in brief: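 Polyreactivity labels are assigned by the sorting gate from which each nanobody was recovered. The gates were low and high (top ~1%), set on anti-HA fluorescence for expression and streptavidin fluorescence for reagent binding. Before sorting, galactose-induced (36–48 hours) yeast display cells were stained for 1 hour at 4 °C with 10% biotinylated, detergent-solubilized Sf9 membrane reagent.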

QVQLVESGGGLVQAGGSLRLSCAASGRTFKTYAMGWYSQAPGKERELVAAISRDGRTYYADSVKGRFTISRDNAKNTVYLQMNSLKPEDTAVYYCNKRSYRKGDYWGQGTQVTVSS
polyreactivity (PSR sort gate): low polyreactivity

QVQLVESGGGLVQAGGSLRLSCAASGSTFAYYAMGWYRPAPGKERELVAVISVRGGSTYYAESVKGRFTISRDNAKNTVYLQMNSLKPEDTAVYYCAADTFAGYYYWGQGTQVTVSS
polyreactivity (PSR sort gate): high polyreactivity

QVQRVESGRGLVQAGGSLRLRCAASGNIFPWSAMGWSRQAPGKERELVAAITSGGGSTYYGDSVKGRFTISRDNAKNTVYLQMNRLKPEDTAVYYCNAESAFVSYYSEDYDYWGQGTQVTVSS
polyreactivity (PSR sort gate): low polyreactivity

QVQLVESCGALVQAGGSLRLICAGSGSIFHVNAMGWSRPAHGKESELVAGISDGGSTYYADSVKGRFTISRYYAKNTVYFQMNSLKPEDSGVYYWATDYPSRWHVHRGFQGKYDYWGQGTQVTLSS
polyreactivity (PSR sort gate): low polyreactivity

QVQLVESGGGLVQAGGSLRLSCAASGRILRQYAMGWYRQAPGKESELVAAISRSGASTFYADSVKGRFTISRDNAKNTVYLQMNSLKPEDTAVYYCAAEHHAFTWAAINYGSWGQGTQVTVSS
polyreactivity (PSR sort gate): high polyreactivity

QVQLVESGGGLVQAGGSLRLSCAASGLIFWKYAMGWYREAPGKERELVAAITSGGSTNYADSVKGRFTISRDNAKNPVYLQMNSLKPEDTAVYYCNARSWFEYYWGQGTQVTVSS
polyreactivity (PSR sort gate): high polyreactivity

QVQLVESGGGLVQAGGSLLLSCAASGSIFGWYAMGWYRQAPGKERELVAAISSSDGSTYYADSVKGRFTISRDNPKNTVYLQMNSLKPEDTAVYYCATDSAFTYAQYDYWGQGTQVTVSS
polyreactivity (PSR sort gate): low polyreactivity

QVQLVESGGGLVQAGGSLRLSCAASGSIYVNAMGWYRQEPGKERELVAVISKSGGSTYYADSVKGRFTISRDNAKNTVYLQMNSLKPEDTAVYYCATRGVSPSRPGYYWGQGTKVTVSS
polyreactivity (PSR sort gate): high polyreactivity

QVQLVETGGGLVQAGGSLRLSCAASGLTFIEYAMGWYRQAPGKERELVAAISSGGRTYYADSVKGRFTISRDNAKNTVYLQMNSLKPEDTAVYYCNARGYRRWYNYWGQGTQVTVSS
polyreactivity (PSR sort gate): high polyreactivity

QVPLVESGGGLLQAGGSLRISCAASGSIFTRNAMGWYRPAPGKERELVAAISRRGVSTYYADSVKGRFTISRDNAKNTVYLQMNSLKPEDTAVYYCTARSPMYRTTYDYWGQGTQVTVSS
polyreactivity (PSR sort gate): high polyreactivity

QVQLVESGGGLVQAGGSLRLSCAASGGTFRTYVMGWYRQAPGKERELVAAISVSGGRTYYADSVKGRFTISRDNAKTTVYLQMNSLKPEDTAVYYCAAYWHGFFKYWEMGYWGQGTQVTVSS
polyreactivity (PSR sort gate): high polyreactivity

QVQLVESGGGLVQAGGSLRLSCAASGSIFGWNAMGWYRQAPGKERELVAAITRRGDSTYYADSVKGRFTISRDNAKNTVYLQMNSLKPEDTAVYYCAKRGTGVYRVDYGYWGQGTQVTVSS
polyreactivity (PSR sort gate): high polyreactivity

QVQLVESGGGLVHAGGSLRLSCAASGSILSSYAMGWYRQAPGKERELVAAINSGGSTNYADSVKGRFTISRDNAKNTVYLQMNSLKAEDTAVYYCNADYSYGTTLDYWGQGTHVTVSS
polyreactivity (PSR sort gate): low polyreactivity

QVQLVESGGGLVQAGGSLRLSCAASGSIFAYYVMGWYRPAPGKERELVAAITRAGSTYYADSVKGRFTISRDNGKNTVYLQMNSLKPEVSAVYYCDARVGYYFRPESYYWGQGTKVTVSS
polyreactivity (PSR sort gate): high polyreactivity

QVQLVESGGGLVQAGGSLRLSCAASGSTFRPSAMGWYRQAPGKERELVAAIRSGRTSYADSVKGRFTISRDYAKNTVYLQMNSLKPEDTAVYYCAKASRGGYYWGQGTQVTVSS
polyreactivity (PSR sort gate): high polyreactivity

QVQLVESGGGLVQAGGSLRLSCAASGRIYPTYTMGWYRQAPGKERELVAAINRGGGSTYYADSVKGRFTISRDTAKNTVYLQLICLKPEDTAVYYCTARTYYRSYGYDYWGQGTQVTVSS
polyreactivity (PSR sort gate): low polyreactivity

QVQLVESGGGLVQAGGSLRLSCAASGRTFRDYTMGWYRQAPGNERELVAAITSTGDTNYADSVKGRFTISRDNAKNTVYLQMNSLKPEDTALNYCATQTGEEYQAPLIYDYWGQGTQVTVSS
polyreactivity (PSR sort gate): low polyreactivity

QVQLVESGGGLVQAGGSLRLSCAASGFTLDWYAMGWYRQAPGKERELVAAIWSAGTTYYADSVKGRFTISRDNAKNTVYLQMNSLKPEDTAVYYCATVSDYDFGLYDYWGQGTQVTVSS
polyreactivity (PSR sort gate): low polyreactivity

QVQLVESGGGLVQAGGSLRLSCAASGSIFVHNDMGGYRQAPGTERELVATIDSAGGTYYADSVKGRFTISRDNAKYTVYLQMNSLKPEDTAVYYCAAYGPYVLSIYDYWGQGTQVTVSS
polyreactivity (PSR sort gate): low polyreactivity

QVQLVESWGGLVQAGGSLRLSCADSGYIYDHYDMGWYRQAPGKDRELVAAISRSAGSTYYADSVKGRFTITRDNAKNTVYLQMNSLKPEDSAVYYCAADGKYYHRRPGWPIYDYWGQGTQVTVSS
polyreactivity (PSR sort gate): high polyreactivity

QVQLVESGGGLVQAGGSLRISCAASGSIFDLNAMGWYRQAPGKERELVAAISSGGRTTYADSVKGRFTISRDNAKNTVYLQMNSLKPEDTAFYYCNAVGDVFPRTGPIYDYWGQGSQVTVSS
polyreactivity (PSR sort gate): high polyreactivity

QVQLVESGGGLVQAGGTLRLSCAASGSIFPDNTMGWYRQAPGKERELVAAIDGRGVTTYYADSVKGRFTISRDNAKNTVYLHMNSLKPEDTAVYYCAAQPWLRYYYWGQGTQVTVSS
polyreactivity (PSR sort gate): low polyreactivity
